# According to the DeepSol protein solubility set:
# Assay: soluble on expression in E. coli; label from the status in PepcDB or PDB records
row,Sequence,soluble on expression in E. coli
1,MIRQLSLKDYEGVAGSALIDEIRSLGESLQGYNVRHINSTIIGGGVAEILSSLVPLMEDVGLTVNWEVLAGTTEFFHTTKLFHNGMHGQPVNITGEMLENYLAIAQKNQNLLDGDADLVVIHDQQPLGLTAFRGRTRGRWLWYCHVDPRYAVPEVWYFLAPMVATCDAAVFHLPEYARDLPVLQYFMPPAIDPLSDKLEHHHHHH,soluble
2,MASKYAVKLKTDFDNPRWIKRHKHMFDFLDINGNGKITLDEIVSKASDDICAKLEATPEQTKRHQVCVEAFFRGCGMEYGKEIAFPQFLDGWKQLATSELKKWARNEPTLIREWGDAVFDIFDKDGSGTITLDEWKAYGKISGISPSQEDCESTFRHCDLDNAGDLDVDEMTRQHLGFWYTLDPEADGLYGNGVP,soluble
3,MNFDLFADEASRRWTETLAPGAVILRGHAYDDAPALLAALQTVIACAPLRNMITPGGFVMSVAMSNCGQLGWVTDEQGYRYTSHDPLSGEAWPAMPEAFSLLAKQAASEAGFADFEPDACLINRYDVGTRMSLHQDKNERDFHQPIVSVSLGLSATFLFGGMVRSDKAQRVPLTHGDVVVWGGESRLYFHGILPLKSGAVPEGMPDECRFNLTFRKAGLEHHHHHH,soluble
4,MSLKPEEIVEGLLSGNRRALARAITYVENEYPESKEIMRQIFAKTGRAHVVGLTGFPGVGKSTLVSKLTEEFRRRGKKVGIIAIDPGSPFTGGALLGDRLRLDGMDSRKQLWTDPGIFFRSMSSRGRAGGLAAKTGDVVRLLDAFGFDVILVETVGAGQSEVDIIEVADTSVVVMMPETGDEIQVNKAGILEIGDIYVVNKADLGGAEKVERWLRYMLSLDEESVQMLSQMTHADEARVQSGEFFERRKGWNPPVIKTVADRGEGIKELADAIEEHFDYMKKTGLIEKRRRERVKRELFEIVMNDVIKLVKEKTNYRDLLVKLLKGETDPYTAAEQIVEEVIHNAGKGEGHHHHHH,soluble
5,MSLTDLIVTNGAVLTMDPARPEAEAVAVADGRITAVGSRAEIERLAGPRTDMIDAGGGTVLPGFVESHLHLVLGGAELAHLQLAGVHGVEALTRAAQSFAAAHPDRPLLMAQGGDYGLLDRPMTRQDLDAILPDRPFAITAPDHHTVWANTAALRAAGLIEGASMPHGHEVVMGADGRATGELREFEAFAPVIALGGEARLNLGIATGEEPSPWPDAAERAIDRAKIARGLAHCAAHGITSMVNMDGNRYTLELLRELQRAGGLTARIRVPFHFKPHMALADLARAEAMTRDFDDDWLACNFVKMFMDGVLDSGTAYRLDDYPDAPGWRSEPLFEPARFAEIATAVDRRGLQIAVHAIGCGAVRTTLDGYAAARAANGARDSRHRIEHIELIDRADIPRLAALGVVASLQPPHPPGAMDFPLQPTLDRIGRSRWPDAYLCRTLAEAGAPVVFASDWPVTDVSVLRGLQAALTRRPYEGAADERLTLAESLRAYTAGGAWANHRERLTGTLRAGLAADLAILDGRLEARAADSLGSLGVARTLCGGRTTHRREGHHHHHH,not soluble
6,MGSDKIHHHHHHMELNHLVTGKIALNQYVHRLEQKDVSFYVHYWGAMTNHYNTLLHKHSFYEICYVVRGEGYYLEGDRTYPLREQTIFLSKPEHLHQIKSETGLFLFYVAFELSEDQSSAEWIKVMEEVKQSPFITMQLKDGEPPGLLWKTLMLQAAQPVNAFDKEILSHLSHALILSLIQTFLPYAQRPKQKQPIHTSSALLTEVKLHIKDNLSQPLKLTDVASHFHISGRHLSRLFAAELGVSYSEFVQNEKINKAAELLKSTNLSIKEIAEEIGFSVHYFTRVFSAKIGSSPGLFRSLYKDSKMTAFQINKPFQKIEQAKPHE,not soluble
7,GGSSRHQFDLIMCLKQPGVQTGLLCEKCDGKCPICDSYVRPKRKVRVCENCSFGKQAKNCIICNLNVGVNDAFYCWECCRLGKDKDGCPRILNLGSNRLDRHFEKKKKV,soluble
8,MSLSNAVAQDLMTIADIVEATTTAPIPFHITAFDGSFTGPEDAPYQLFVANTDAVSYIATAPGDLGLARAYLMGDLIVEGEHPGHPYGIFDALKEFYRCFKRPDASTTLQIMWTLRKMNALKFQEIPPMEQAPAWRKALINGLASRHSKSRDKKAISYHYDVGNEFYSLFLDDSMTYTCAYYPTPESSLEEAQENKYRLIFEKLRLKEGDRLLDVGCGWGGMVRYAAKHGVKAIGVTLSEQQYEWGQAEIKRQGLEDLAEIRFMDYRDVPETGFDAISAIGIIEHIGVNNYPDYFELLSSKLKTGGLMLNHSITYPDNRPRHAGAFIDRYIFPDGELTGSGTLIKHMQDNGFEVLHEENLRFDYQRTLHAWCENLKENWEEAVELAGEPTARLFGLYMAGSEWGFAHNIVQLHQVLGVKLDEQGSRGEVPERMWWTEGHHHHHH,soluble
